Results published in the supplement of paper PMC10567573.

B1: TBX6 (parent)
chain: AFLELPHGSGGSGYPAAPPAVPFA

Variants of: B1
Assay: protein stability index of a GFP-peptide fusion (GPS, HEK-293T) (PSI 1-6); higher = more stable
Settings: c terminus: a fixed tail appended
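Further: lentivirally expressed fusions sorted by FACS into six bins by GFP to DsRed ratio, PSI derived from sequencing read proportions per bin multiplied by bin number.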

Protein stability index of substitutions, site by site:
G8: E 3.31; V 1.68; D 2.75; Y 1.97; K 2.42; M 2.57; P 2.21; F 1.71; N 2.53; H 2.27; Q 2.02; L 1.96; T 2.27; C 2.19; I 1.88; S 2.71
A20: M 2.35; W 2.46; Y 2.03; G 2.73; I 2.11; K 2.85; L 2.21; S 2.52; H 2.38; E 2.87; N 2.69; V 1.84
Y14: D 3.33; V 2.73; Q 3.06; G 3.04; A 3.1; K 2.78; S 3.25; R 3.03; I 2.65; N 3.54; F 2.77; E 3.8; L 2.85; W 2.21; C 2.99
A1: M 1.61; K 3.26; H 3.13; L 2.07; Y 2.21; E 3.11; F 1.89; G 2.84; D 2.83; C 1.41; R 2.58; Q 2.77; S 2.08; I 2.67; P 2.94; N 2.83; V 1.78; W 1.89
P18: E 3.32; D 2.61; L 2.44; N 2.19; M 2.56; A 1.94; F 1.96; C 2.4; W 2.03; Y 2.06; T 2.41; H 2.23
F2: Q 3.65; W 2.11; L 3.08; G 3.33; H 3.88; E 4.25; M 2.83; T 3.49; S 3.63; C 3.58; P 4.04; A 3.45; Y 2.82; K 3.76; V 3.2; I 2.94; D 3.93
G13: F 2.21; A 2.87; I 2.51; V 2.42; C 2.83; L 1.83; Q 2.89; H 2.23; W 1.73; Y 1.66; D 3.02; S 2.44; N 2.4
S9: T 2.1; M 1.9; K 1.94; D 2.6; N 2.61; F 1.45; Y 2.21; P 2.61; I 2.12; G 2.41; R 2.68; A 3.21; C 1.96; E 2.58
A24: G 2.56; V 2.47; K 2.55; E 3.4; L 1.6; F 1.54; D 3.33; R 2.54; W 1.67; H 1.92; S 2.63; C 1.53; Q 2.71; T 2.55; N 2.68; Y 1.89
E4: F 1.4; Y 2.2; N 2.09; V 1.9; T 2.03; Q 1.93; R 1.76; K 1.68; P 3.3; I 3.55; M 1.56; A 2.24
G10: H 2.34; P 2.44; F 2.36; W 1.25; D 2.67; M 2.3; N 2.42; S 2.7; K 2.01; L 2.22
H7: V 2.45; F 1.85; M 2.1; Q 2.4; E 2.83; L 1.97; R 2.67; D 2.9; A 2.29; S 2.4; P 2.78; C 2.12
